The results in this text go back to the supplement of paper PMC5998384.

The subject of series [1] is HeLa Kyoto. Briefly: solubility change mitosis vs G1/S (difference of NP-40 vs SDS log2 ratios) (log2 ratio difference); higher = more soluble in mitosis.
The test system of series [2] is HeLa Kyoto. Briefly: thermal stability score vs G1/S (z-score of summed log2 fold changes over temperatures); higher = more thermally stable than in G1/S.
Series [3] relates to HeLa Kyoto. Briefly: solubility in G1/S (NP-40 vs SDS abundance) (log2 ratio); higher = more soluble. To be noted: cell cycle stage: G1/S.
The subject of series [4] is HeLa Kyoto. The series can be described thus: melting temperature (median over replicates), in situ; higher = more thermally stable.
Where [5] appears, read: cell cycle stage: early G1 (4.5 h after nocodazole release).
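Wherever melting temperature (median over replicates), in situ is given: HeLa Kyoto cells synchronized by double thymidine or nocodazole block, proteins quantified by TMT10plex mass spectrometry, three independent biological replicates.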
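Wherever solubility change mitosis vs G1/S (difference of NP-40 vs SDS log2 ratios) is given: synchronized HeLa Kyoto cells (double thymidine block for G1/S, nocodazole release for mitosis), protein amounts in NP-40 versus SDS lysates quantified by mass spectrometry, three biological replicates.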
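Wherever solubility in G1/S (NP-40 vs SDS abundance) is given: HeLa Kyoto cells arrested at G1/S by double thymidine block, proteins quantified by TMT10plex mass spectrometry in mild NP-40 versus SDS extracts, three biological replicates.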
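Wherever thermal stability score vs G1/S (z-score of summed log2 fold changes over temperatures) is given: synchronized HeLa Kyoto cells, proteins quantified by TMT10plex mass spectrometry, three biological replicates, mitosis taken 0.5 h after nocodazole release, G1/S directly after double thymidine block.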

Sequence of COL5A2 (chain, as listed by the source): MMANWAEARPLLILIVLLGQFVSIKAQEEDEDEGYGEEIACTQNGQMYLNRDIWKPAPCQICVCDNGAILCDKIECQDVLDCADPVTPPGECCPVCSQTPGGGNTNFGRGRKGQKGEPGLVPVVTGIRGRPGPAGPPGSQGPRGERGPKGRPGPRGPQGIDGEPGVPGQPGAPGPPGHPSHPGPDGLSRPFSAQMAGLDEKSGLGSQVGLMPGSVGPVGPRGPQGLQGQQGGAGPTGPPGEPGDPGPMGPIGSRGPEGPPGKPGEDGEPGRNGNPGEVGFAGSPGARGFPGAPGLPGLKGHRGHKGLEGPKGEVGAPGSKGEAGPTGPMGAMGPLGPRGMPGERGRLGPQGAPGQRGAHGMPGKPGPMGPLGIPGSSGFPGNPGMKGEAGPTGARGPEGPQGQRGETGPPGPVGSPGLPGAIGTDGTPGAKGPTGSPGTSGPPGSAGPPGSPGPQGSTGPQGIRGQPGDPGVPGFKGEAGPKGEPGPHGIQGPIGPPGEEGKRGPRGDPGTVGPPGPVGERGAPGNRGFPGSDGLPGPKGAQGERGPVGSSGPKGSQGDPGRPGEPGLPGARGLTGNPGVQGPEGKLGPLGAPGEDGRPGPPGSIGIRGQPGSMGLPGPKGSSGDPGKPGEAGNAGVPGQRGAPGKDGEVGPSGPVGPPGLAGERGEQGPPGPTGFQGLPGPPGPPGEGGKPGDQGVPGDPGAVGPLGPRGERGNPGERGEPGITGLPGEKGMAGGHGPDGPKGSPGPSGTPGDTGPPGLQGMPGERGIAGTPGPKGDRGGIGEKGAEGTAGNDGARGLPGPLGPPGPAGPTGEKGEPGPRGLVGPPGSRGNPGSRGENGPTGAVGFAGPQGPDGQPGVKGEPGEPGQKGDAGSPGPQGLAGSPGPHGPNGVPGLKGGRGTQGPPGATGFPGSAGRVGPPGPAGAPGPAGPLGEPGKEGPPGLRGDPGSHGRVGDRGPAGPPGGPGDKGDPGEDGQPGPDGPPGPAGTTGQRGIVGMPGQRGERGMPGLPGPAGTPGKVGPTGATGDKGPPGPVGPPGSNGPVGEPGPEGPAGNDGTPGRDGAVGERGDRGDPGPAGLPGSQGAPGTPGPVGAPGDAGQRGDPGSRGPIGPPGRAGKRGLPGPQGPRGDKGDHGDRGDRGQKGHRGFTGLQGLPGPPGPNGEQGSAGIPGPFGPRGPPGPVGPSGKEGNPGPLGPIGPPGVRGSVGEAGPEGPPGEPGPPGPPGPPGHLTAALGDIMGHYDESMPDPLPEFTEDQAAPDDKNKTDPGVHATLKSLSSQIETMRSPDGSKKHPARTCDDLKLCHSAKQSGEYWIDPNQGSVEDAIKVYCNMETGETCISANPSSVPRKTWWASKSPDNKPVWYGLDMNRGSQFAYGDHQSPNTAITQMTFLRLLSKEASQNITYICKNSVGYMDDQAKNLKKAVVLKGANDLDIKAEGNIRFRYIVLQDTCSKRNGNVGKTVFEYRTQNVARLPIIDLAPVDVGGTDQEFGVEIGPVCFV

On to “MTDNIPLQPVRQKKRMDSRPRAGCCEWLRCCGGGEARPRTVWLGHPEKRDQRYPRNVINNQKYNFFTFLPGVLFNQFKYFFNLYFLLLACSQFVPEMRLGALYTYWVPLGFVLAVTVIREAVEEIRCYVRDKEVNSQVYSRLTARGTVKVKSSNIQVGDLIIVEKNQRVPADMIFLRTSEKNGSCFLRTDQLDGETDWKLRLPVACTQRLPTAADLLQIRSYVYAEEPNIDIHNFVGTFTREDSDPPISESLSIENTLWAGTVVASGTVVGVVLYTGRELRSVMNTSNPRSKIGLFDLEVNCLTKILFGALVVVSLVMVALQHFAGRWYLQIIRFLLLFSNIIPISLRVNLDMGKIVYSWVIRRDSKIPGTVVRSSTIPEQLGRISYLLTDKTGTLTQNEMIFKRLHLGTVAYGLDSMDEVQSHIFSIYTQQSQDPPAQKGPTLTTKVRRTMSSRVHEAVKAIALCHNVTPVYESNGVTDQAEAEKQYEDSCRVYQASSPDEVALVQWTESVGLTLVGRDQSSMQLRTPGDQILNFTILQIFPFTYESKRMGIIVRDESTGEITFYMKGADVVMAGIVQYNDWLEEECGNMAREGLRVLVVAKKSLAEEQYQDFEARYVQAKLSVHDRSLKVATVIESLEMEMELLCLTGVEDQLQADVRPTLETLRNAGIKVWMLTGDKLETATCTAKNAHLVTRNQDIHVFRLVTNRGEAHLELNAFRRKHDCALVISGDSLEVCLKYYEYEFMELACQCPAVVCCRCAPTQKAQIVRLLQERTGKLTCAVGDGGNDVSMIQESDCGVGVEGKEGKQASLAADFSITQFKHLGRLLMVHGRNSYKRSAALSQFVIHRSLCISTMQAVFSSVFYFASVPLYQGFLIIGYSTIYTMFPVFSLVLDKDVKSEVAMLYPELYKDLLKGRPLSYKTFLIWVLISIYQGSTIMYGALLLFESEFVHIVAISFTSLILTELLMVALTIQTWHWLMTVAELLSLACYIASLVFLHEFIDVYFIATLSFLWKVSVITLVSCLPLYVLKYLRRRFSPPSYSKLTS [ATP9A]”, for which, in series [1], the “solubility change mitosis (log2)” value is 0.0184. Also, the figures for the thermal stability score in series [2] (setting [5]) and in series [2] (cell cycle stage: mitosis) were -4.08 and -4.01, respectively. In addition, the “solubility in G1/S (log2)” value in series [3] was -0.6. In addition, the melting temperature in series [4] (cell cycle stage: G1/S) was found to be 57.4 °C; in series [4] (cell cycle stage: mitosis), 58.4 °C.
Consider “MSCAGAAAAPRLWRLRPGARRSLSAYGRRTSVRFRSSGMTLDNISRAAVDRIIRVDHAGEYGANRIYAGQMAVLGRTSVGPVIQKMWDQEKDHLKKFNELMVTFRVRPTVLMPLWNVLGFALGAGTALLGKEGAMACTVAVEESIAHHYNNQIRTLMEEDPEKYEELLQLIKKFRDEELEHHDIGLDHDAELAPAYAVLKSIIQAGCRVAIYLSERL [COQ7]”, for which the “solubility change mitosis (log2)” value in series [1] was -0.0504. In addition, the thermal stability score in series [2] (setting [5]) is -2.12; in series [2] (cell cycle stage: mitosis) it was -0.639. The “solubility in G1/S (log2)” value in series [3] is -0.0496. The melting temperature in series [4] (cell cycle stage: G1/S) was 56.1 °C; in series [4] (cell cycle stage: mitosis) it was 53.4 °C.
Consider “MAAVKEPLEFHAKRPWRPEEAVEDPDEEDEDNTSEAENGFSLEEVLRLGGTKQDYLMLATLDENEEVIDGGKKGAIDDLQQGELEAFIQNLNLAKYTKASLVEEDEPAEKENSSKKEVKIPKINNKNTAESQRTSVNKVKNKNRPEPHSDENGSTTPKVKKDKQNIFEFFERQTLLLRPGGKWYDLEYSNEYSLKPQPQDVVSKYKTLAQKLYQHEINLFKSKTNSQKGASSTWMKAIVSSGTLGDRMAAMILLIQDDAVHTLQFVETLVNLVKKKGSKQQCLMALDTFKELLITDLLPDNRKLRIFSQRPFDKLEQLSSGNKDSRDRRLILWYFEHQLKHLVAEFVQVLETLSHDTLVTTKTRALTVAHELLCNKPEEEKALLVQVVNKLGDPQNRIATKASHLLETLLCKHPNMKGVVSGEVERLLFRSNISSKAQYYAICFLNQMALSHEESELANKLITVYFCFFRTCVKKKDVESKMLSALLTGVNRAYPYSQTGDDKVREQIDTLFKVLHIVNFNTSVQALMLLFQVMNSQQTISDRYYTALYRKMLDPGLMTCSKQAMFLNLVYKSLKADIVLRRVKAFVKRLLQVTCQQMPPFICGALYLVSEILKAKPGLRSQLDDHPESDDEENFIDANDDEDMEKFTDADKETEIVKKLETEETVPETDVETKKPEVASWVHFDNLKGGKQLNKYDPFSRNPLFCGAENTSLWELKKLSVHFHPSVALFAKTILQGNYIQYSGDPLQDFTLMRFLDRFVYRNPKPHKGKENTDSVVMQPKRKHFIKDIRHLPVNSKEFLAKEESQIPVDEVFFHRYYKKVAVKEKQKRDADEESIEDVDDEEFEELIDTFEDDNCFSSGKDDMDFAGNVKKRTKGAKDNTLDEDSEGSDDELGNLDDDEVSLGSMDDEEFAEVDEDGGTFMDVLDDESESVPELEVHSKVSTKKSKRKGTDDFDFAGSFQGPRKKKRNLNDSSLFVSAEEFGHLLDENMGSKFDNIGMNAMANKDNASLKQLRWEAERDDWLHNRDAKSIIKKKKHFKKKRIKTTQKTKKQRK [CEBPZ]”, for which the “solubility change mitosis (log2)” value in series [1] turned out to be 1.14. The thermal stability score in series [2] (setting [5]) was determined as 1.59; in series [2] (cell cycle stage: mitosis) it was 1.76. The “solubility in G1/S (log2)” value in series [3] is -1.9. The melting temperature in series [4] (cell cycle stage: G1/S) is 49.8 °C; in series [4] (cell cycle stage: mitosis), 50.1 °C.
Take CKAP5: the “solubility change mitosis (log2)” value in series [1] was -0.078. The thermal stability score is -0.177 in series [2] (setting [5]) and -0.509 in series [2] (cell cycle stage: mitosis). For the same substance, in series [3], the “solubility in G1/S (log2)” value came out at 0.0443. In addition, the melting temperature in series [4] (cell cycle stage: G1/S) was found to be 49.6 °C; in series [4] (cell cycle stage: mitosis) it was 49.2 °C.
COL5A2: the “solubility change mitosis (log2)” value in series [1] is 0.0391. The thermal stability score was 2.88 in series [2] (setting [5]) and 0.949 in series [2] (cell cycle stage: mitosis). Moreover, the “solubility in G1/S (log2)” value in series [3] was -0.0207. Further, the melting temperature worked out at 54.6 °C in series [4] (cell cycle stage: G1/S) and 57.9 °C in series [4] (cell cycle stage: mitosis).
